According to article PMC5683694 (ACS Omega, 2017):
Positions of bridges follow the written chain, without caps; N, C: chain ends. No end group written: not given here.

What was measured:
[1] = cited from earlier work
live cells = conditions: fluorescence correlation microscopy on live cells; cited from earlier work
[2] = target: Grb7-SH2 domain (growth factor receptor bound protein 7, residues 415-532) (UniProt Q14451 415-532); assay: thermal shift assay
Grb7-SH2 domain (growth factor receptor bound protein 7, residues 415-532), sequence (Q14451 415-532): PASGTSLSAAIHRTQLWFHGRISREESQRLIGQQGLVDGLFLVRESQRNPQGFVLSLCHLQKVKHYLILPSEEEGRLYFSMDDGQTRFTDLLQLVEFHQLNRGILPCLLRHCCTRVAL

Row | Molecule | change in Tm [2] [°C] | other results
1 | FQNRRMKWKK | – | uptake compared to that of the full-length Penetratin sequence [1]: negligible uptake
2 | NRRMKWKK | – | translocation efficiency (live cells): poor translocation efficiency
3 | {CH2CO}-WFEGYDNTFPCRQIKIWFQNRRMKWKK (thioether N-11) [G7-18NATE-P16 (cyclo-(CH2CO-WFEGYDNTFPC-RQIKIWFQNRRMKWKK))] | 0.74 | –
4 | {CH2CO}-WFEGYDNTFPC (thioether N-11) [G7-18NATE (cyclo-CH2CO-WFEGYDNTFPC)] | 0.8 | –
5 | {CH2CO}-WFEGYDNTFPCRRMKWKK (thioether N-11) [G7-18NATE-P7 (cyclo-(CH2CO-WFEGYDNTFPC-RRMKWKK))] | 1.8 | –
